The target of experiment [1] is T1, maltose binding protein MalE from Escherichia coli (Escherichia coli, UniProt P0AEX9 27-396 = MBP). In words: ΔG(wt)-ΔG(mut) from Kd by competition Biacore (reference itself). Background: SPR reads the build-up and loss of mass on a sensor chip optically.
Experiment [2] has as its target T1, maltose binding protein MalE from …. In words: competition Biacore in solution, buffer L2; buffer L2.
For experiment [3] the target is unchanged. The experiment can be described thus: competition Biacore in solution, buffer M2; buffer M2.
Experiment [4] has as its target bt-MalE, hybrid between a peptide that can be biotinylated in vivo by E. coli and MalE (Escherichia coli).
Another experiment addresses T2, bovine serum albumin (bovine, UniProt P02769 25-607).
T2 construct: also called BSA
In words: fluorescence titration of 0.3 µM DarpOff7(N45ANBD) by BSA, 25 °C, buffer M1.

Substitutions are numbered along the chain they refer to. Where “and” joins values, the source holds several entries; their conditions need not be identical. Identical values can stand only once.

T2 sequence (P02769 25-607 limits assumed): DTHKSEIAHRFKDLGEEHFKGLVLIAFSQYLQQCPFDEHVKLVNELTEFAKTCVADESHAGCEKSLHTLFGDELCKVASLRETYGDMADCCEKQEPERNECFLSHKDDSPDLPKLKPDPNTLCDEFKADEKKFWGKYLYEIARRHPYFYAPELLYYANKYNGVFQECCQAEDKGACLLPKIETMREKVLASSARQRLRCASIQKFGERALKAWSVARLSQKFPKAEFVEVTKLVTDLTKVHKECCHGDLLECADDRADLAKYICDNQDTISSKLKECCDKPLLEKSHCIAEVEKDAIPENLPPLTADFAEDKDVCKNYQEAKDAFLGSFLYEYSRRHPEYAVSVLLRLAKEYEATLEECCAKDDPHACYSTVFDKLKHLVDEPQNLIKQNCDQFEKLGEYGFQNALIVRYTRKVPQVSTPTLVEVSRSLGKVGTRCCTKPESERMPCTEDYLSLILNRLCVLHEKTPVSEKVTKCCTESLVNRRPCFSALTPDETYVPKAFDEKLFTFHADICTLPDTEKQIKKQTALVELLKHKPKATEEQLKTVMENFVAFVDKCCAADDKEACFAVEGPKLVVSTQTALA

B1: DarpMbp3-16(wt) (designed binder)
chain: MRGSHHHHHHGSDLGKKLLEAAHAGQDDEVRILMANGADVNAMDNFGVTPLHLAAYWGHFEIVEVLLKYGADVNASDATGDTPLHLAAKWGYLGIVEVLLKYGADVNAQDKFGKTAFDISIDNGNEDLAEILQKLN
With B1, the ΔΔG in experiment [1] was found to be 0 kcal/mol.

B2: DarpOff7(wt) (designed binder)
chain: MRGSHHHHHHGSDLGRKLLEAARAGQDDEVRILMANGADVNAADNTGTTPLHLAAYSGHLEIVEVLLKHGADVDASDVFGYTPLHLAAYWGHLEIVEVLLKNGADVNAMDSDGMTPLHLAAKWGYLEIVEVLLKHGADVNAQDKFGKTAFDISIDNGNEDLAEILQKLN
By Kd is commonly meant the free concentration of one partner at which half of the binding sites on the other are occupied at equilibrium, for simple one-to-one binding. High values mean weaker binding, low ones tighter binding. As usually defined, the koff is a measure of how fast the partners let go of each other. One may read the kon as a measure of how fast the partners come together. A higher kon goes with fast association. As to B2, binding in experiment [2] was put at a Kd of 11 nM. In addition, in experiment [3], binding was put at a Kd of 5.6 nM. In experiment [4], the koff was 0.0051 s⁻¹ and 0.0062 s⁻¹ and 0.0061 s⁻¹; the kon was 660000 M⁻¹ s⁻¹ and 250000 M⁻¹ s⁻¹ and 550000 M⁻¹ s⁻¹.

B3: DarpOff7(N45ANBD) (designed binder)
chain: B2 chain with N45C
notes: also called conjugate at position Asn45; Asn45
Regarding B3, the binding result with bovine serum albumin is “no binding (tested: 2.4 µM)”.

(Values after patent publication US20110262964A1 (published 2011).)
